Results from the nanobody polyreactivity screen of Harvey et al. (2022).

Test: yeast display, Sf9 membrane polyspecificity reagent, FACS + sequencing; frameworks hold sequencing errors
In short: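 Using colony PCR, genes from sorted yeast display clones were amplified, then sequenced on MiSeq at 2 × 250 and filtered by CDR length. The clones had been stained with 10% biotinylated, detergent-solubilized Sf9 membrane reagent for 1 hour at 4 °C and sorted by FACS into low and high (top ~1%) gates on anti-HA and streptavidin fluorescence. Polyreactivity labels come from the gate of origin.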

Sequence	polyreactivity (PSR sort gate)
QVQLVESGGGLVQAGGSLRLSCAASGRISTTNAMGWYRQAPGKERELVASITSGGGTNYADSVKGRFTISRDNAKNTVYLQMNCLKPEDTAVYYCAKRRSYFLHSYYSYGYWGQGTQVTVSS	high polyreactivity
QVQLQESGGGLVQAGGSLCLSCAASGTIFFDGDMGWYRQAPGKEREFVAAINPGGSAYYADSVKGRLPLAAITHTVYLQMNSLKPEDTAVYYCAAKLFDVYGYYYWGQGTHVTVSS	low polyreactivity
QVQLVESGGGLVQAGGSLRLSCASSGFIFPWNAMGWYRQAPGKERELVADISTGTSRTYADSVKGRFTISRDNAKNTVYFQMNSLKPEDTAVYYFNKAHNYKYDWGQGTQVTVSS	low polyreactivity
QVQLVESGGGLVQAGGSLRISCAASGITFPYYAMGWYRQAPGKERELVADITSGGSTNYADSVKGRFTISRDNAKNTVYLQMNSLKPEDTAVYYCAADWYVIYDYWGQGTQVTVSS	low polyreactivity
QVQLVESGGGLVQAGGSLRLSCAASGSIFDDNTMGWYRQAPGKERELVAAISSRGGSTYYADSVKGRFTISRDNAKNTVYLQMNSLKPEDTAVYYCATGPRWTWEGSRWKLEFDSWGQGTQVTVSS	low polyreactivity
KVQLVESGGGLVQAGGSLRLSCAASGLILWYYAMGWAIQAPGKERELVAAISRYGASTYYADSVKGRFTISRDNAKNTDYLQLNSLKPEDTAVYYCATGSSRYRHQRDYLGQGTQVTVSS	high polyreactivity
QVQLVESGGGLDQAGVSLRLSCAASGRTFGGYAMGWYRQAPGKERELVASITSGGSTYYADSVKGRFTISRDNAKNTVYLQMNSLKPEDTAVYYCAADTYFETSTRAIPTNDYWGQGTQVTVSS	low polyreactivity
QVQLVESGGGLVQAGGSLRLSCAASGRTFEPNAMGWYRQAPGKEREFVAAISWDGGDTYYADSVKGRFTISRDNAKNTVYLQMNSLKPEDTAVYYCAKSTLYSVEYDYWGQGTQVTVSS	low polyreactivity
QVQLVESGGALVQAGGSLRLSCAASGSIFRFYAMGWYRQAPGKERELVAAISWSGGSTYYADSVKGRFTISRDNAKNTVYLQMNSLKPEDTAVYYCNTRYYGGFDSWGQGTQVTVSS	high polyreactivity
RVHLQESGGGLVQAGGSLRLSCAASGTIFIRGDMGWYRQAPGKEREFVATIDTVSNTYYADSEKGRFTISRDNAKNAVYLQMNCLNPGDTAVYYCVVDYQLAGRLRYWGQGTQVTLSS	low polyreactivity
QVQLVESGGGLVQAGGSLRLSCAASGFTFGYNAMGWYRQAPGKERELVAAISRSGGRTYYADSVKGRFTISRDNAKNTVYLQMNSLKPEDTAVYYCARRYRDYGRYGYWGQGTQVTVSS	high polyreactivity
QVQLVESGGGLVQAGGSLRLSCAASGRTFRWYTMGWYRQAPGKERELVAAITSRGGSTYADSVKGRFTISRDNAKNTVYLQMNSMKPEDTAVYYCNAARTYQYDYWGQGTQVTVSS	high polyreactivity
QVQLVESGGGLVQAGGSLRLSCAASGSIFFEYAMGWYRQAPGKERELVASINRGGGSTYYADSVKGRFTISRDNAKNTVYLQMNSLKPEDTAVYYCAAQWKYRQSYLDYYWGQGTQVTVSS	low polyreactivity
QDQLEESGGGLVQAGGSLRLSCAASGRTFFHYAMGWYRQAPGKERELVAGISSGGRTTYADSVKGRFTISRDNAKNTVYLQMISLKPEDTAVYYCAASYIVWLTRGAPRKRFDYWGQGTQVTVSS	high polyreactivity
QVQLVESGGGLVQAGGSLRLSCAASGRTFGRYAMGWYRQAPGKERELVAAITRSGSSTYYADSVKGRFTISRDNAKNTVYLQMNSLKPEDTAVYYCAALYGPFYSTGEYWGQGTQVTVSS	high polyreactivity
QVQLVESGGGLVQAGGSLRLTCAASGSIVDANAMGLYRQAPGKERELVAAISSGDSTSYADSVKGRFTISRDNAKNTVYLQLNSLNPEDTAVYYCNAYVDSQGGFTLKHDYWGQGTQVTVSS	low polyreactivity

Sequence	polyreactivity (PSR sort gate)
QVQLVESGGGLVQAGGSLRLSCAASGSTFSNNAMGWYRQAPGKERELVASTNYADSVKGRFTISRDNAKNTVYLQMNSLKPEDTAVYYCAAGAYPSWGHDYWGQGTQVTVSS	low polyreactivity
QVQLVESGGGLVQAGGSLRLSCAASGRTFSANAMGWYRQAPGKERELVATISSGGRTNYADSVKGRFTISRDNAMNTVYLQMNSLKPEDTAVYYCAADFDYAYWDTTYDYWGQGTQVTVSS	low polyreactivity
QVQLVESGGGLVQAGGSLRLSCAASGRTFYTNVMGWYRQAPGKERELVAAITTSSSRTYYADSVKGRFTISRDNAKNTVYLQMNSLKPEDTAVYYCAARIHGSWSFDYWGQGTQVTVSS	low polyreactivity
QVQLVESGGGLVQAGGSLRLSCAASGFIFYRNTMGWYRQAPGKEREFVAAIRWRGGSTYYADSVKGRFTISRDNAKNTFYLQLNSVKPEDTAVYYCAADTRPGYSGFEYWGQGTQVTVSS	high polyreactivity
QVQLVESGGRLVKAGASHRLSCAASAITCGRNTRGWYRQAPGKARELVAAIDSGVNTYADSVKGRFTISRDNAKYTVYLQMTSLKPEDTSVYYWAFVGGEFSSYGYWGLGTQVTVSS	low polyreactivity
QVQLVETGGGLFQAGGSLRLSCAASGFIYSYAMGWYRQAPGKERELDAAISRSGGSTYYADSVKGRFTISRDNAKNTVYLQMNSLKPEDTAVYYCAARPNSNRYVRYGYWGQGTQVTVSS	high polyreactivity
QVQLVESGGGLVQAGGSLRLSCAASGRTFVNYAMGWYRQAPGKEREFVAAITNGGRTNYADSVKGRFTISRDNAKNTVYLQMNSLKPEDTAVYYCAARYRFGGIRRYNYWGQGTQVTVSS	high polyreactivity
QVQLVESGGGLVQAGGSLRLSCAASGRTFSYYTMGRYRQAPGKERELVARISNRGTNTYYADSVKGRFTISRDHAKNSVNLQMNSLKTEDTAVFYCAKYYYTSIVGYDYWGQGTQVTVSS	low polyreactivity
QVHLVESGGGLVQAGGSLRLSCAASGFIFQYYAMGWYRQAPGKEREMVAAINRGGGTHYADSVQGRFTISRDNAKNTVYLQMNSLKPEVTAVYYCNKVYYWPGSRPSRYEYWGQGTQVTVSS	low polyreactivity
QVQLVESGGGLVQAGGSLRLSCAASGFIFVRYAMGWYRQAPGKERELVAAISWRGGSTYFADSVKGRFTISRDNAKNTVYLQMNSLKPEDTAVYYCAAVTWVHRYSRFNPFVAFDYWGQGTQVTVSS	high polyreactivity
QVQLVESGGGLVQAGGSLRLSCAASGSIFIRNAMGWYRQAPGKERELVASISRSGAYTRYADSVKGRFTISRDNAKNTVYLQMNSLKPEDTAVYYCAVRLVNYLSYWRTYNYWGQGTQVTVSS	high polyreactivity
QVQLVESGGGLVQAGGSLRLSCAASGSIFYPYTMGWYRQAPGKERELVAAISGGCRTYYADSVKGRFTISRDNAKNTVYLQMNSLKPEDTAVYYCAARYGYRWLVGKYEYWGQGTQVTVSS	high polyreactivity
QVQLVESGGGLVQAGGSLRLSCAASGSTFRYYAMGWYRQAPGKERELVAAISRSGGRTYYADSVKGRFTISRDNAKNTVYLQMNSLKPEDTAVSYCATRGDGSSWGDHDYWGQGTQVTVSS	high polyreactivity
QVQLVESCGGLVQAGGRLRLSCAASGRNFQQYAMGWSRQAPGKERELVAAISRGGSTYYADSVKGRFTISRDNAKNTVYLQMNRLKPEDTAVYYCAARWWRRFSGSHSLYDYWGQGTQVTVSS	high polyreactivity
QVQLVESGGGLVHPGGSLRLSCAASGRTYAVDAMGWYRQAPGKERELVAAISRRGGSTSYADSEKGRFTISRDNAKNTVSLQMNSLKPEDTAVYYCNTDPGKFTPFDYWGQGTQVTVSS	high polyreactivity
QVQLVESGGGLVQAGGSLRLSCAASGRTFTVYAMGWYRQAPGKERELVAAISSGGITYYADSVKGRFTISRDNAKNTVYLQMNSLKPEDTAVYYCNTKSGKARYVFGYWGQGTQVTVSS	low polyreactivity
